To fix the notation:
B1: IMPA1 (parent)
chain: FIGEESVAAGEKSILTDNPTWIID
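Note: lentivirally expressed fusions sorted by FACS into six bins by GFP to DsRed ratio, PSI derived from sequencing read proportions per bin multiplied by bin number.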

The variants in the series derive from B1. Nature of the series: protein stability index of a GFP-peptide fusion (GPS, HEK-293T) (PSI 1-6); higher = more stable. Particulars: c terminus: a fixed tail appended.
As for FIGEESVAAGEKKILTDNPTWIID [S13K], the protein stability index was found to be 2.16. As for FIGEESVAAGEKQILTDNPTWIID [S13Q], the figure is 1.99; as for FIGEESVAAGEKPILTDNPTWIID [S13P], 2.02. Turning to FIGEESVAAGEKIILTDNPTWIID [S13I], the protein stability index came to 1.99.

Regarding FIGEESVAAGEKFILTDNPTWIID [S13F], the protein stability index stood at 1.97. Regarding FIGEESVAAGEKLILTDNPTWIID [S13L], the protein stability index came out at 1.95. In the case of FIGEESVAAGEKMILTDNPTWIID [S13M], the protein stability index worked out at 1.73.

Take FIGEESVAAGEKWILTDNPTWIID [S13W]: the protein stability index came to 2.21. As for FIGEESVAAGEKVILTDNPTWIID [S13V], the figure is 2.47. For FIGEESVAAGEKNILTDNPTWIID [S13N], the protein stability index is 1.98. As for FIGEESVAAGEKRILTDNPTWIID [S13R], the figure is 2.4. As for FIGEESVAAGEKYILTDNPTWIID [S13Y], the figure is 2; as for FIGEESVAAGEKTILTDNPTWIID [S13T], 1.89.

Turning to FIGEESVAAGEKEILTDNPTWIID [S13E], the protein stability index was determined as 2.32. In the case of FIGEESVAAGEKDILTDNPTWIID [S13D], the protein stability index came to 2.44. On to FIGEESVAAGEKGILTDNPTWIID [S13G], for which the protein stability index was 1.67. With FIGEESVAAGEKCILTDNPTWIID [S13C], the protein stability index came to 2.27. As for FIGEESVAAGEKAILTDNPTWIID [S13A], the figure is 2.06; as for FIGEESVAAGEKHILTDNPTWIID [S13H], 1.96; as for FIGEESVAAGEKSILEDNPTWIID [T16E], 2.64. In the case of FIGEESVAAGEKSILMDNPTWIID [T16M], the protein stability index was found to be 2.38. As for FIGEESVAAGEKSILQDNPTWIID [T16Q], the figure is 2.19; as for FIGEESVAAGEKSILPDNPTWIID [T16P], 1.26. Regarding FIGEESVAAGEKSILYDNPTWIID [T16Y], the protein stability index amounted to 1.64. The result for FIGEESVAAGEKSILVDNPTWIID [T16V] reads 2.21; that for FIGEESVAAGEKSILIDNPTWIID [T16I], 1.41; that for FIGEESVAAGEKSILCDNPTWIID [T16C], 3.16. FIGEESVAAGEKSILSDNPTWIID [T16S]: the protein stability index stood at 1.94.

Consider FIGEESVAAGEKSILHDNPTWIID [T16H], for which the protein stability index came out at 2.38. As for FIGEESVAAGEKSILDDNPTWIID [T16D], the figure is 3.17; as for FIGEESVAAGEKSILLDNPTWIID [T16L], 1.83; as for FIGEESVAAGEKSILADNPTWIID [T16A], 2.35.

Regarding FIGEESVAAGEKSILGDNPTWIID [T16G], the protein stability index turned out to be 2.11. Turning to FIGEESVAAGEKSILKDNPTWIID [T16K], the protein stability index came to 2.73. As for FIGEESVAAGEKSILRDNPTWIID [T16R], the figure is 2.37; as for FIGEESVAAGEKSILNDNPTWIID [T16N], 2.89. As for FIGEESVAAGEKSILFDNPTWIID [T16F], the figure is 1.66; as for FIGEESVAAGEKSILWDNPTWIID [T16W], 1.72. Take FIGEESVAAGEKSILTQNPTWIID [D17Q]: the protein stability index worked out at 1.78.

Take FIGEESVAAGEKSILTENPTWIID [D17E]: the protein stability index is 2.6. Consider FIGEESVAAGEKSILTKNPTWIID [D17K], for which the protein stability index amounted to 1.46. The result for FIGEESVAAGEKSILTPNPTWIID [D17P] reads 2; that for FIGEESVAAGEKSILTHNPTWIID [D17H], 1.93; that for FIGEESVAAGEKSILTVNPTWIID [D17V], 1.55. As to FIGEESVAAGEKSILTGNPTWIID [D17G], the protein stability index came to 2.08. Regarding FIGEESVAAGEKSILTANPTWIID [D17A], the protein stability index is 1.54.

On to FIGEESVAAGEKSILTNNPTWIID [D17N], for which the protein stability index is 1.85. As for FIGEESVAAGEKSILTINPTWIID [D17I], the figure is 2.7; as for FIGEESVAAGEKSILTMNPTWIID [D17M], 2.13. The result for FIGEESVAAGEKSILTCNPTWIID [D17C] reads 1.66; that for FIGEESVAAGEKSILTSNPTWIID [D17S], 1.71; that for FIGEESVAAGEKSILTFNPTWIID [D17F], 2.25.

Regarding FIGEESVAAGEKSILTLNPTWIID [D17L], the protein stability index came to 2.06. As for FIGEESVAAGEKSILTYNPTWIID [D17Y], the figure is 1.48. Take FIGEESVAAGEKSILTTNPTWIID [D17T]: the protein stability index came out at 1.63. Turning to FIGEESVAAGEKSILTWNPTWIID [D17W], the protein stability index was 2.23. With FIGEESVAAGEKSILTRNPTWIID [D17R], the protein stability index was determined as 1.68. In the case of FIGEESVAYGEKSILTDNPTWIID [A9Y], the protein stability index was determined as 2.59. As to FIGEESVAWGEKSILTDNPTWIID [A9W], the protein stability index turned out to be 1.87. The result for FIGEESVAAGEKSILTDTPTWIID [N18T] reads 2.84.

Regarding FIGEESVAAGEKSILTDVPTWIID [N18V], the protein stability index worked out at 2.75. As for FIGEESVAAGEKSILTDMPTWIID [N18M], the figure is 2.6. The result for FIGEESVAAGEKSILTDCPTWIID [N18C] reads 2.64; that for FIGEESVAAGEKSILTDFPTWIID [N18F], 2.46.

As to FIGEESVAAGEKSILTDWPTWIID [N18W], the protein stability index was 2.1.

For the variant FIGEESVAAGEKSILTDKPTWIID [N18K], the protein stability index is 2.73. As for FIGEESVAAGEKSILTDIPTWIID [N18I], the figure is 2.71. Consider FIGEESVAAGEKSILTDRPTWIID [N18R], for which the protein stability index is 2.31. The result for FIGEESVAAGEKSILTDSPTWIID [N18S] reads 3.05. As for FIGEESVAAGEKSILTDLPTWIID [N18L], the figure is 2.88; as for FIGEESVAAGEKSILTDQPTWIID [N18Q], 2.86. The result for FIGEESVAAGEKSILTDGPTWIID [N18G] reads 2.71. As for FIGEESVAAGEKSILTDDPTWIID [N18D], the protein stability index was 3.68. The result for FIGEESVAAGEKSILTDHPTWIID [N18H] reads 2.95; that for FIGEESVAAGEKSILTDYPTWIID [N18Y], 2.62. On to FIGEESVAAGEKSILTDPPTWIID [N18P], for which the protein stability index came to 3.14. Consider FIGEESVAAGEKSILTDAPTWIID [N18A], for which the protein stability index came to 3.01. The result for FIGEESVAAGEKSILTDEPTWIID [N18E] reads 3.48; that for FIGEESVAAGEGSILTDNPTWIID [K12G], 1.91; that for FIGEESVAAGERSILTDNPTWIID [K12R], 2.57. As for FIGEESVAAGEDSILTDNPTWIID [K12D], the figure is 2.27; as for FIGEESVAAGEPSILTDNPTWIID [K12P], 2.45; as for FIGEESVAAGEMSILTDNPTWIID [K12M], 2.29. As for FIGEESVAAGETSILTDNPTWIID [K12T], the figure is 2.32; as for FIGEESVAAGENSILTDNPTWIID [K12N], 1.89; as for FIGEESVAAGEISILTDNPTWIID [K12I], 1.61.

Regarding FIGEESVAAGEYSILTDNPTWIID [K12Y], the protein stability index is 2.35.

With FIGEESVAAGEQSILTDNPTWIID [K12Q], the protein stability index stood at 1.97. As for FIGEESVAAGEVSILTDNPTWIID [K12V], the figure is 2.11; as for FIGEESVAAGEESILTDNPTWIID [K12E], 2.21. With FIGEESVAAGECSILTDNPTWIID [K12C], the protein stability index amounted to 1.93. On to FIGEESVAAGEHSILTDNPTWIID [K12H], for which the protein stability index amounted to 2.06. Regarding FIGEESVAAGEWSILTDNPTWIID [K12W], the protein stability index is 1.97. For the variant FIGEESVAAGEFSILTDNPTWIID [K12F], the protein stability index turned out to be 1.56.

The record behind these values is the supplement of paper PMC10567573.
